According to US20090191181:
Residue numbers refer to the chain shown, from its start.

T1: RB1 double mutant K791A/K824A
T1 chain: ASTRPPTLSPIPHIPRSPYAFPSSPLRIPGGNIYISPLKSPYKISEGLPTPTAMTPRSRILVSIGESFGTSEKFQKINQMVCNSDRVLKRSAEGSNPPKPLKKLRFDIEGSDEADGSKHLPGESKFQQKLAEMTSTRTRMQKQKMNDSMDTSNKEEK

T2: RB1 double mutant K814A/K824A
T2 chain: T1 chain with A20K, K43A

T3: RB1 mutant K791A
T3 chain: T1 chain with A53K

T4: RB1 mutant K814A
T4 chain: T1 chain with A20K, K43A, A53K

T5: RB1 substrate domain mutant K824A
T5 chain: T1 chain with A20K

T6: RB1 substrate domain mutant K889A
T6 chain: T1 chain with A20K, A53K, K118A

T7: RB1 substrate domain mutant K896A
T7 chain: T1 chain with A20K, A53K, K125A

T8: Recombinant C-terminal region of RB1 (codons 769-921)
T8 chain: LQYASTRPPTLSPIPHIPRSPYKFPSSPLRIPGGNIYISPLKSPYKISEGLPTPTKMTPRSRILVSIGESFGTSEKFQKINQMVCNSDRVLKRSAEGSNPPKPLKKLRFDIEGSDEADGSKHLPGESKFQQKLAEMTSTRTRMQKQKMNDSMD

T9: full-length recombinant RB protein (3108, QED Bioscience)
T9 chain: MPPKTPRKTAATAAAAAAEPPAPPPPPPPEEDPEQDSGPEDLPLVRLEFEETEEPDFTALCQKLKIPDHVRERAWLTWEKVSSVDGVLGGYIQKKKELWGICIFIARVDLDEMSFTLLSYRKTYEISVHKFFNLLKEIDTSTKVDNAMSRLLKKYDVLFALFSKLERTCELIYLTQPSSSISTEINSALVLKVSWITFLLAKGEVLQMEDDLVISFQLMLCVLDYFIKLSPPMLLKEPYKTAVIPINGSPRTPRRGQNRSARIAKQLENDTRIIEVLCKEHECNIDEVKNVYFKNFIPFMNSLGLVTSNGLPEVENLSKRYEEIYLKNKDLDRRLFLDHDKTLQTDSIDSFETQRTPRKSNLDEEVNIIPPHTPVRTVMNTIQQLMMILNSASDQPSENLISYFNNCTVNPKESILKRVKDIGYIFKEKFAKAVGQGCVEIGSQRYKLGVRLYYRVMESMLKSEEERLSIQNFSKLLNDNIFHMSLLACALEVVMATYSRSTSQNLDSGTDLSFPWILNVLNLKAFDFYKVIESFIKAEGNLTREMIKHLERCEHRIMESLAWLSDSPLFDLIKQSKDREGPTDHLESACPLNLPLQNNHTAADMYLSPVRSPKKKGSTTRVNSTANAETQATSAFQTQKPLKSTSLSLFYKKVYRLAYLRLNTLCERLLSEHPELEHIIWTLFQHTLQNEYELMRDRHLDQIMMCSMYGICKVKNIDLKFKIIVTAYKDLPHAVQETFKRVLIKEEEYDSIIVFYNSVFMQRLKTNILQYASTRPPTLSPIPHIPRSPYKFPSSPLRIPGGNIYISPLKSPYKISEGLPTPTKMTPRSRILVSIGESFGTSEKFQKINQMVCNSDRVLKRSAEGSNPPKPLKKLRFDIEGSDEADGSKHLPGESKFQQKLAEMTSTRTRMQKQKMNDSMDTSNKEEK

B1: Recombinant SMYD3 protein (prepared in Sf9 cells, Baculovirus system) (protein)
chain: MEPLKVEKFATANRGNGLRAVTPLRPGELLFRSDPLAYTVCKGSRGVVCDRCLLGKEKLMRCSQCRVAKYCSAKCQKKAWPDHKRECKCLKSCKPRYPPDSVRLLGRVVFKLMDGAPSESEKLYSFYDLESNINKLTEDKKEGLRQLVMTFQHFMREEIQDASQLPPAFDLFEAFAKVICNSFTICNAEMQEVGVGLYPSISLLNHSCDPNCSIVFNGPHLLLRAVRDIEVGEELTICYLDMLMTSEERRKQLRDQYCFECDCFRCQTQDKDADMLTGDEQVWKEVQESLKKIEELKAHWKWEQVLAMCQAIISSNSERLPDINIYQLKVLDCAMDACINLGLLEEALFYGTRTMEPYRIFFPGSHPVRGVQVMKVGKLQLHQGMFPQAMKNLRLAFDIMRVTHGREHSLIEDLILLLEECDANIRAS
B2: Flag-tagged wild-type SMYD3 immunoprecipitated from 293T cells (p3XFLAG-CMV-SMYD3) (protein)
chain: B1 chain

How the values were obtained:
[1] = molecular target: T1, RB1 double mutant K791A/K824A
[2] = molecular target: T2, RB1 double mutant K814A/K824A
RB1 mutant K791A = molecular target: T3, RB1 mutant K791A
RB1 mutant K814A = molecular target: T4, RB1 mutant K814A
[3] = molecular target: T5, RB1 substrate domain mutant K824A
[4] = molecular target: T6, RB1 substrate domain mutant K889A
[5] = molecular target: T7, RB1 substrate domain mutant K896A
[6] = molecular target: T8, Recombinant C-terminal region of RB1 …
[7] = molecular target: Recombinant full-length GST-p53 (wild-type p53), P04637
[8] = molecular target: T9, full-length recombinant RB protein …

Recombinant full-length GST-p53 (wild-type p53), P04637, sequence (P04637 whole entry, looked up): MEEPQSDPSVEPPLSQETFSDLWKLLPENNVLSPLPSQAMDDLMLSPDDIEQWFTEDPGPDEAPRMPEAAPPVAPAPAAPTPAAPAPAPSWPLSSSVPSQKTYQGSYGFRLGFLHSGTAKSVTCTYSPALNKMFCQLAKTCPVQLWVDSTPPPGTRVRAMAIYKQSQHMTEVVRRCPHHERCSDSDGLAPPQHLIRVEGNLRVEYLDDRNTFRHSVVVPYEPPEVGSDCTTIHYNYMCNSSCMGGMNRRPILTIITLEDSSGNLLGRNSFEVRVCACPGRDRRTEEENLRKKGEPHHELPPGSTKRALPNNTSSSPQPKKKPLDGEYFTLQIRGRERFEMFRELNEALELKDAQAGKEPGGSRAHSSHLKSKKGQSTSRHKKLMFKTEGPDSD

| Protein | methylation by SMYD3 (fluorogram, liquid scintillation counter) [1] | methylation by SMYD3 (fluorogram, liquid scintillation counter) [2] | methylation by SMYD3 (fluorogram, liquid scintillation counter) (RB1 mutant K791A) | methylation by SMYD3 (fluorogram, liquid scintillation counter) (RB1 mutant K814A) | methylation by SMYD3 (autoradiography, liquid scintillation counter) [3] | methylation by SMYD3 (autoradiography, liquid scintillation counter) [4] | methylation by SMYD3 (autoradiography, liquid scintillation counter) [5] | incorporation of 3H-labeled methyl donor (liquid scintillation counter) [6] | methyltransferase (MTase) activity (recombinant histone H3) | methylation of substrate (in vitro MTase assay with 3H-labeled SAM, PAGE and autoradiography) [6] | methylation of substrate (in vitro MTase assay with 3H-labeled SAM, PAGE and autoradiography) [7] | methylation of substrate (in vitro MTase assay) [8] | methylation of substrate (in vitro MTase assay with 3H-labeled SAM, PAGE and autoradiography) (recombinant histone H3) |
| --- | --- | --- | --- | --- | --- | --- | --- | --- | --- | --- | --- | --- | --- |
| B1 | showed equivalent levels of methylation to the K824A protein | showed equivalent levels of methylation to the K824A protein | K791A and K814A, showed similar levels of methylation to wild type-RB1 | K791A and K814A, showed similar levels of methylation to wild type-RB1 | methylation of K824A was significantly decreased | the K889A and K896A mutants were methylated at similar levels by SMYD3 | the K889A and K896A mutants were methylated at similar levels by SMYD3 | four to six fold higher amount of 3H-labeled methyl donor in the presence of SMYD3 than the absence of SMYD3 | a dose-dependent increase of MTase activity on both substrates |  |  |  |  |
| B2 |  |  |  |  |  |  |  |  |  | bands corresponding to methylated RB1 were also detected | no bands corresponding to methylated p53 were detected | SMYD3 methylated full length of RB1 | bands corresponding methylated histone H3 |
